# Assay results published in paper PMC3327807.
# B1: P. vivax adenosine deaminase (pvADA) (Plasmodium vivax Sal-1) (protein)
# chain: MNILQEPIDFLKKEELKNIDLSQMSKKERYKIWKRIPKCELHCHLDLCFSADFFVSCIRKYNLQPNLSDEEVLDYYLFAKGGKSLGEFVEKAIKVADIFHDYEVIEDLAKHAVFNKYKEGVVLMEFRYSPTFVAFKYNLDIELIHQAIVKGIKEVVELLDHKIHVALMCIGDTGHEAANIKASADFCLKHKADFVGFDHGGHEVDLKEYKEIFDYVRESGVPLSVHAGEDVTLPNLNTLYSAIQVLKVERIGHGIRVAESQELIDMVKEKNILLEVCPISNVLLKNAKSMDTHPIRQLYDAGVKVSVNSDDPGMFLTNINDDYEELYTHLNFTLEDFMKMNEWALEKSFMDSNIKDKIKNLYF
# Substrate: Nc1ncnc2c1ncn2[C@@H]1O[C@H](CO)[C@@H](O)[C@H]1O
# Test: UV spectrophotometric deamination kinetics
# Type: biochemical, Plasmodium vivax
# Settings: zinc
protein,measurement,value
B1,Km,71 ± 16 µM
